For 1 molecule, Binding AUC and Blocking % results are on record in patent US12281155.

Common to all, as to conditions: remark: other sources report otherwise
The target in experiment [1] is T1, recombinant SARS-CoV-2 Spike RBD domain, BA.2 variant (SARS-CoV-2). Put plainly: ELISA on coated RBD. (In an ELISA, binding on a coated surface is turned into a signal by an enzyme label.)
Experiment [2] deals with T2, recombinant SARS-CoV-2 Spike RBD domain, BA.4/5 variant (SARS-CoV-2). Put plainly: ELISA on coated RBD.
The target of experiment [3] is T3, recombinant SARS-CoV-2 Spike RBD domain, Delta variant (SARS-CoV-2). Put plainly: ELISA on coated RBD.
Experiment [4] has as its target T1, recombinant SARS-CoV-2 Spike RBD …. Put plainly: competition ELISA, blocking of RBD binding to ACE2 ectodomain.
In experiment [5] the target is T2, recombinant SARS-CoV-2 Spike RBD …. Described as above.
In experiment [6] the target is T3, recombinant SARS-CoV-2 Spike RBD …. Described as above.

B1: SPK002 antibody (parental version Cv2.3194 described in WO 2022/228827) (antibody, V domains shown)
VH: EVQLVESGGGLIQPGGSLRLSCAASGITVTSNYMSWVRQAPGKGLEWVSVIYPGGSTFYADSVKGRFTISRDNSKNTLYLQMNSLRAEDTAVYYCARDLVVYGMDVWGQGTTVTVS
VL: EIVLTQSPGTLSLSPGERATLSCRASQSVSSSYLAWYQQKPGQAPRLLIYGASSRATGIPGRFSGSGSGTDFTLTISRLEPEDFAIYYCQQGVTFGGGTKVEIK
For B1, the Binding AUC was determined as 33 in experiment [1], 33 in experiment [2] and 34 in experiment [3]. Moreover, the Blocking % in experiment [4] came out at 94%; in experiment [5] it was 92%; in experiment [6], 93%.
